This is an account of results in the nanobody polyreactivity screen of Harvey et al. (2022).

This data set can be described thus: yeast display, Sf9 membrane polyspecificity reagent, FACS + sequencing; frameworks hold sequencing errors. Put shortly: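 Galactose-induced (36–48 hours) yeast carrying a synthetic nanobody display library were exposed to 10% biotinylated, detergent-solubilized Sf9 membrane reagent at 4 °C for 1 hour. FACS followed streptavidin microbead enrichment, using low and high (top ~1%) gates for expression (anti-HA) and reagent binding (streptavidin). Colony PCR, MiSeq 2 × 250 sequencing and CDR-length filtering followed. Labels for polyreactivity reflect the gate of origin.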
Take “QVQLVESGGGIVQAGGSLRLSWAASGRIFYAYAMRWSRQAPGKERELVASLSGGGSTDYADSVKGRFTISRDNAKNTVVLQMNSLKPEDTAVYYCAAQYYLYRSRFDYWGQGTLVTVSS”: the “polyreactivity (PSR sort gate)” value is “high polyreactivity”. “QLQLVESGGGLVQAGGSLRLSCAASGSTFYAYAMGWYRQAPGKERELVARIRWRGGRTYYADSVKGRFTISRDNAKNTVYLRMNSLKPEDTAVYYCAADLSRAGGGYWGQGTQVTVSS”: the “polyreactivity (PSR sort gate)” value is recorded as “high polyreactivity”. In the case of “QVQLVESGGGLVQAGGSLRLSCAASGRTFWPYAMGWYRQAPGKERELVAAISTSGGSTYYADSVKGRFTISRDNAKNTVYLQMNSLKPEDTAVYYCAAYSTLTPAYEYWGQGTQVTVSS”, the “polyreactivity (PSR sort gate)” value is given as “high polyreactivity”. For the sequence “QVQLVESGGALVQAGGSLRLSCAASGSILDPKAMGWYRQAPGKERELVASISRGDNTYYADSVKGRFTISRDNAKNTVYLQMNSLKPEDSAVYYCAADYSWVVWHDYWGQGTQVTVSS”, the “polyreactivity (PSR sort gate)” value is “low polyreactivity”.

On to “QVQLVESGGGLVQAGGSLRLSCAASGSIFDSYVMGWYRHAPGKERELVAAITYSGGSTYADSVKGRFTISRDNAQNTVDLQMNSLKPEDTAVYYCAAASSFYLYLLEDYWGQGTQVTVSS”, for which the “polyreactivity (PSR sort gate)” value was “low polyreactivity”. Take “QVQLVESGGGLVQAGGSLRLSSAASGIIFSTYAMGWYRQAPGKERELVAAITSTGSTNYADSVKGRFTISRDNAKNTVYFQMNSLKPEDTAVYYCNAALNVSGHYPNDYWGQGTQVTVSS”: the “polyreactivity (PSR sort gate)” value is “low polyreactivity”. Consider “QVHLVESAGGLVQAGGSLRLTCAASGSTFLFYAMGMYRQAPGKERELVAAISRSGTSTYYADSVKGRFTISRDNAKNTVYLQMNSLKPEDTAVYYCAADDYGGYYYWGQGTQVTVSS”, for which the “polyreactivity (PSR sort gate)” value is reported as “high polyreactivity”. For “QVQLVESGGGLVQAGGSLRLSCAASGSTITYYAMGWYRQAPGKERELVAAISGSGRTHYADSVKGRFTISRDNAKNTVYLQMNSLKPEDTAVYDCNARQYTYNYAFTRCKYDYWGQGTQVTVSS”, the “polyreactivity (PSR sort gate)” value is recorded as “high polyreactivity”. Consider “QVQLVESAGGLVQAGGSLRLSCAASGFTFYWYAMGWYRQAPGKEREFVAAIDQSGGSTYYADSVKGRFTISRDNAKNTVYLQMNSLKPEDTAVYYCAARYILWDGDSWTEFDYWGQGTQVTVSS”, for which the “polyreactivity (PSR sort gate)” value is listed as “low polyreactivity”. As for “QVQLVESGGGLVQAGGSLRLSCAASGRTFRVYAMGWYRPAPGKERELVATITSSGGSTYYADSVKGRFTISRDNAKNTVYLQMNSLKPEDTGVYYCNVSVYYNYDSSYYYWGQGTQVTVSS”, the “polyreactivity (PSR sort gate)” value is “low polyreactivity”.

As to “QVQLQESGGGLVQAGGSLRLSCAASGYISHADEMGWYRQAPGKVHELVASISNGGSTNYADSVKGRFTISRDNAKNTVYLQMNSLKSEDTAVYYCAAWTGQVDIHYYWGQGTQVTVSS”, the “polyreactivity (PSR sort gate)” value is “low polyreactivity”.

As for “QVQLVESGGGLVQAGGSLRLSCAASGSTQVYYDMGWYRQAPAKERELVATITGTDSTYYADSVKGRFTISRDNAKNTVYLQMNSLKPEDTADCAADRAASRPDYDYWGEGTQVTVSS”, the “polyreactivity (PSR sort gate)” value is on record as “low polyreactivity”. On to “QVHLVESGGGLVQAGGILRLSCAASGFIFLQYTMGWYRPAPGKERELVAGISWSGDSTYYADSVKGRFTISRDNAKNTVYLQMNSLKPEDTAVYYCNADWRAAGSDFAFGNPQLYDDWGQGSQVTVSS”, for which the “polyreactivity (PSR sort gate)” value is reported as “low polyreactivity”. For the sequence “QVQLVESGGGLVQAGGSLRLSCAASGSIFRYNAMGWYRQAPGKERELVAAISASGGRTHDADSVKGRFTISRDNAKNTVYLQMNSLKPEDTAVYYCAAATYRGTSLYGYWGQGTQVTVSS”, the “polyreactivity (PSR sort gate)” value was “high polyreactivity”. Turning to “QVQLVESGGGLVQAGGSLRLSCAASGIIFYYNAMGWYRQAPGKERELVAAIDDRGDSTYYADSVKGRFTISRDNAKNTVYLEMNSLKPEDTAVYYCATDGHYLYSWYKYDYWGQGTQVTVSS”, the “polyreactivity (PSR sort gate)” value was “low polyreactivity”.

“QVQLVESGGGLVQAGGSLRLSCAASGSTFAANAMGWYRQAPGKERELVAAITSSGGSTYYADSVKGRFTISRDNAKNTVYLQLNSLKPEVTAVYYCNKDIERYVRIYDSWGQGTQVTVSS”: the “polyreactivity (PSR sort gate)” value is on record as “low polyreactivity”. Take “QVHLGESGGGLVQAGGSLRLSCAASGSIFGYYAMGWYRQAPGKERELVAAITFRDGSTYYADSVKGRFTISRDNAKNTVYLQMNSLKPEDTAVYYCAARVTYSRGYRGGSRTKYDYWGQGTQVTVSS”: the “polyreactivity (PSR sort gate)” value is “low polyreactivity”. On to “QVQLVESGGGLVQAGGSLRLSCAASGSTFSGYAMGWYRQAPGKERELVAAINWNGGRTYYADSVKGRFTISRDNAKNTVYLQMYSLKPADTAVSYCNKQSPRGRSAVYKYDYWGQGTQVTVSS”, for which the “polyreactivity (PSR sort gate)” value was “high polyreactivity”. “QVHLVVSGGGLVQAGGSLRLSCAASGRLLYKYAMGWNRQAPGKERELVAAISGSGGRTYYADSVKGRFTISRDNAKNTVYLQMNSLKPEDTAVYYCAAVHPFRHVLYDYWGQGTQVTVSS”: the “polyreactivity (PSR sort gate)” value was “low polyreactivity”. Regarding “QVQLVESGGGLVQAGGSLRLSCAASGSILVNNAMGWYRQAPGKERELVAAISRSGTRTFYADSVKGRFTISRENAKNTVYLQMNSLKPEDTAVYYCAVDYYYRMDYWGQGTQVTVSS”, the “polyreactivity (PSR sort gate)” value is recorded as “high polyreactivity”. As to “QVQIVESGGGLVQAGGSLRLSCAASGSTSLVNAMGWYRQAPGKESELVAAITRGGNTYYADSVKGRFTISRDNAKNTVYLQMNSLKPEDTAVYYCAADFWRFYYEYDYWGQGTQVTVSS”, the “polyreactivity (PSR sort gate)” value is “low polyreactivity”.

For “QVQLVESRGGLVQAGGSLRLSCAASGFIFNYYVMGRYRQAPGKERELVAGITKRGDRTYYADSVKGRFTISRDNAKNTVYLQMNSLKPEDTAVYYCAALARSFANSYGYWGQGTQVTVSS”, the “polyreactivity (PSR sort gate)” value is given as “high polyreactivity”. Next, “QVQLVESGGGLVQAGGSLRLSCAASGFIFVYGNVMGWYRQAPGKERELVASITSDGGSTNYADSVKGRFTISRDNAKNTVYLQMNSLKPEDTAVYYCNADVPRGFGGEYDYWGQGTQVTVSS”: “low polyreactivity”. As for “QVQLVESGGGLVQAGGSLRLSCAASGSTFVPYAMGWYRQAPGKERELVAGITFSGGSTYYADSVKGRFTIPRDNAKNTVYLQMNSLKPEDTAVYYCARAGGYPLSRYGYWGQGTQVTVSS”, the “polyreactivity (PSR sort gate)” value was “high polyreactivity”. “QVQLVDSGGGLVQAGGSLRLSCAASGSTFRLYAMGWYRQAPGKERALVAAITRGGITYYADSVKGRFTISRDNAKNTVYFQMNSLKPEDTAVYYCAATTFGPYALYPRYYYWGQGTQVTVSS”: the “polyreactivity (PSR sort gate)” value is on record as “high polyreactivity”. In the case of “QLQLVESGGGLVQAGGSLRLISAASGLTFADYAMGWYRQAPGKERELVAAISSNGGSTNYADSVKGRFTISRDNAKNTVYLQMNSLKPEDTAVYYCAARPRNNARFWDYNYWGQGTQVTVSS”, the “polyreactivity (PSR sort gate)” value is given as “high polyreactivity”. “QVQLVESGGGLVQAGGSLRLSCAASGNTFRIYTMGWYRQSPGKEMELVATITRRGGSTYYADSVKGRFTISRDYAKNTVYLQMKSLKPEDTAVYYCAATTKLPRGHYWNYYWGQGTQVTVSS”: the “polyreactivity (PSR sort gate)” value is on record as “high polyreactivity”. Take “QVQLVESGGGLVQAGGSLRLSCAASGGTFSTYAMGWYRQAPGKERELVAAISYSTGNTYYADSVKGRFTISRDNAKNTVYFQMNSLKPEDTAVYYCATLGGSQRGLGSFTRKYDYWGQGTQVTVSS”: the “polyreactivity (PSR sort gate)” value is listed as “low polyreactivity”. The same measure for “QGQLVESGGGLVQAGGSLRLSCAASGSIFDLNAMGWYRQAPGKERELVAAISSGGGTYYADSVKGRFTISRDNAKNTVYLQMNCLKPEDTAVYYCNRVTRWTYNYWGQGTQVTVSS”: “high polyreactivity”; for “QVQLVESGGGLVQAGGSLRLSCAASGSTFRYYAMGWYRQAPGKERELVAAINYSGGRTYYADSVKGRFTISRDNAKNTVYLQMNCVKPEDSAVYYCAADWSYLAVTDSTSDYDPNYGYWGQGTQVNVSS”: “high polyreactivity”. For “QVQLVESGGGLVQAGGSLRLSCAASGSTFWFNDMGWYRQAPGKEREFVAAISSIGGSTYYADSVKGRFTISRDNAKNTVYLQMNSLKPEDTAVYYCAADRLQYYNPYDYWGQGTQVTVSS”, the “polyreactivity (PSR sort gate)” value is “low polyreactivity”. Regarding “QVQLVESGGGLVQAGGSLRLSCAASGRTFVPYAMGWYRQAPGKERELVASITRSGGRTYYADSVKGRFTISRDNAKNTVYLQMNSLKPEDTAVYYCAVDWSVYYRTYDYWGQGTQVTVSS”, the “polyreactivity (PSR sort gate)” value is on record as “high polyreactivity”. As for “QVQLVESGGGLVQAGGSLRLSCAASGSTFYSNAMGWYRQAPGKERELVAAIDWGGGSTYYADSVKGRFTISRDNAKNTVYLQMNSLKPEDTAVYYCATDANGYYNYDYWGQGTQVTVSS”, the “polyreactivity (PSR sort gate)” value is given as “low polyreactivity”.

Take “QVQLVESGGGLVQAGGSLRLSCAASGGIFVTYAMGWYRKAPGKERELLAAISANGGDTYYADSVKGRFTISRDNAKTSVYLQMNRLKPEDTAVYYCAADGFLPILHPVPWSYYYPFGYWGQGTHVTVSS”: the “polyreactivity (PSR sort gate)” value is recorded as “low polyreactivity”. Take “QVQLVESGGGLVQAGGSLRLSCAASGIIFFIYAMGWYRQAPGKERELVARISWRGGSTSYADSVKGRFTISRDNAKNTVYLQMNSLKPEDTAVYYCAAGVYSFRYDSWGQGTQVTVSS”: the “polyreactivity (PSR sort gate)” value is “low polyreactivity”.

For the sequence “QDQLVESGGGLDHAGGSIRLSCAASGFISKYYAMGWYTQAPGKERELVASISRDGSTSYADTVKGRFTNTRDNAKNPVYLQMNSLKPEDTAVYYCNAGYNWYPLFDYWGQGTQVTVSS”, the “polyreactivity (PSR sort gate)” value is listed as “high polyreactivity”.

As for “QVQLVESGGGLVQAGGSLRLSCAASGSTFYDYAMGWYRQAPGKERELVAAISRGGSTYYADCVKGRFTISRDNAKNTVYLQMNSLKPEDTAVYYCAAGRSYDSGFYYWGQGTQVTVSS”, the “polyreactivity (PSR sort gate)” value was “low polyreactivity”. For “QVQLVESGGGLVQAGGSLRLSCAASGRTFNVYAMGWYRQAPGKERELVAAISIGGRTNYADSVKGRFTISRDNAKNTVYLQMNSLKPEDTAVYYCAADTRRKYGGMYYWGQGTQVTVSS”, the “polyreactivity (PSR sort gate)” value was “high polyreactivity”. Take “QVQLVESGGGLVQAGGSLRISCAASGLIFYSYAMGWYRQAPGKERELVAAISSGTRTYYADSVKGRFTISRDNAKNTVYLQMNSLKPEDTAVYYCAAVDAHKKRYPPSGRLYGYWGQGTQVTVSS”: the “polyreactivity (PSR sort gate)” value is reported as “high polyreactivity”. Take “QVQLVESGGGLVQAGGSLRLSCAASGYTFPKYAMGWYRQAPGKERELVAAITKRGGRTYYADSVKGRFTISRDNAKNTVYLQMNSLKPEDTAVYYCAVDLDGPEYSQVHYDYWGQGTQVTVSS”: the “polyreactivity (PSR sort gate)” value is recorded as “high polyreactivity”.
